As a reminder, the Kd is the concentration at which binding is half-saturated.

For assay [1], the target named is Fc gamma RIIIA/CD16a, CF (FcγRIIIA(V158)) (R&D Systems). As to the kind of experiment: SPR. For orientation: Surface plasmon resonance follows binding to a sensor surface in real time, without labels.
In assay [2] the target is T1, FcγRIIB/C (CD32b/c) (FcγRIIB) (R&D Systems) (UniProt P31994 46-217).
T1 chain: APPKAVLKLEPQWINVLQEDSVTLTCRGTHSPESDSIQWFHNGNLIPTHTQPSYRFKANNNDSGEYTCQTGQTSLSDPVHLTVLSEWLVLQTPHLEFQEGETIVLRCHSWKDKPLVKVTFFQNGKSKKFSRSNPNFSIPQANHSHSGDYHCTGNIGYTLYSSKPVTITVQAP
Put plainly: SPR.

Sequence of Fc gamma RIIIA/CD16a, CF (FcγRIIIA(V158)) (R&D Systems) (chain, as listed by the source): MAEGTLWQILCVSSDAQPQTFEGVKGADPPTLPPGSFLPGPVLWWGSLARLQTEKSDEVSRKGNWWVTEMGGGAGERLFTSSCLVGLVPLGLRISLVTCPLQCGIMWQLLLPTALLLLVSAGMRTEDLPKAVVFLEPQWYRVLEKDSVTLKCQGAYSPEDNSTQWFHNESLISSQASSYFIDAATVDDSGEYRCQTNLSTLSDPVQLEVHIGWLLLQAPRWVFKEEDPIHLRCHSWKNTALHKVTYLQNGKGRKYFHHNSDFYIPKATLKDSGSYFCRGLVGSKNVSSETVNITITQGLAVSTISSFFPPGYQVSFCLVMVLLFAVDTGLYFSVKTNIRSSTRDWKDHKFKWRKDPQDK

B1: X3-KI HM268-K8 (antibody)
chain 1: QVQLVQSGPEVKKPGASVKVVCKTSGYTFTSYYIQWLKQRPGQGLEWIGWIYFGDASTKYNEKFKGRVTMTADKSTSTAYMELRSLRSDDTAVYYCASYYGSYFDYWGQGTTVTVSSASTKGPSVFPLAPSSKSTSGGTAALGCLVKDYFPEPVTVSWNSGALTSGVHTFPAVLQSSGLYSLSSVVTVPSSSLGTQTYICNVNHKPSNTKVDKKVEPKSCDKTHTCPPCPAPELLGGPDVFLFPPKPKDTLMISRTPEVTCVVVDVSDEDPEVKFNWYVDGVEVHNAKTKPREEQYNSTYRVVSVLTVLHQDWLNGKEYKCAVSNKALPAPEEKTISKAKGQPREPQVYTLPPSRDELTKNQVSLTCLVKGFYPSDIAVEWESNGQPENNYKTTPPVLDSDGSFFLYSKLTVDKSRWQQGNVFSCSVMHEALHNHYTQKSLSLSPGK
chain 2: DIQMTQSPSSLSASVGDRVTITCRASQDISNYLNWYQQKPDGTVKLLIYSTSRLHSGVPSRFSGSGSGTDYTLTISSLQPEDFATYYCQQGSTLPFTFGQGTKLEIKRTVAAPSVFIFPPSDEQLKSGTASVVCLLNNFYPREAKVQWKVDNALQSGNSQESVTEQDSKDSTYSLSSTLTLSKADYEKHKVYACEVTHQGLSSPVTKSFNRGEC
Regarding B1, the equilibrium dissociation constant (Kd) in assay [1] was determined as 162 nM; in assay [2], 689 nM.

B2: X3-KSL HM268-K8 (antibody)
chain 1: QVQLVQSGPEVKKPGASVKVVCKTSGYTFTSYYIQWLKQRPGQGLEWIGWIYFGDASTKYNEKFKGRVTMTADKSTSTAYMELRSLRSDDTAVYYCASYYGSYFDYWGQGTTVTVSSASTKGPSVFPLAPSSKSTSGGTAALGCLVKDYFPEPVTVSWNSGALTSGVHTFPAVLQSSGLYSLSSVVTVPSSSLGTQTYICNVNHKPSNTKVDKKVEPKSCDKTHTCPPCPAPELLGGPDVFLFPPKPKDTLMISRTPEVTCVVVDVGDEDPEVKFNWYVDGVEVHNAKTKPREEQYNSTYRVVSVLTVLHQDWLNGKEYKCAVSNKAYPAPIEKTISKAKGQPREPQVYTLPPSRDELTKNQVSLTCLVKGFYPSDIAVEWESNGQPENNYKTTPPVLDSDGSFFLYSKLTVDKSRWQQGNVFSCSVMHEALHNHYTQKSLSLSPGK
chain 2: DIQMTQSPSSLSASVGDRVTITCRASQDISNYLNWYQQKPDGTVKLLIYSTSRLHSGVPSRFSGSGSGTDYTLTISSLQPEDFATYYCQQGSTLPFTFGQGTKLEIKRTVAAPSVFIFPPSDEQLKSGTASVVCLLNNFYPREAKVQWKVDNALQSGNSQESVTEQDSKDSTYSLSSTLTLSKADYEKHKVYACEVTHQGLSSPVTKSFNRGEC
In the case of B2, the Kd in assay [1] came to 3460 nM; in assay [2], 1240 nM.

B3: X3-K HM268-K8 (antibody)
chain 1: QVQLVQSGPEVKKPGASVKVVCKTSGYTFTSYYIQWLKQRPGQGLEWIGWIYFGDASTKYNEKFKGRVTMTADKSTSTAYMELRSLRSDDTAVYYCASYYGSYFDYWGQGTTVTVSSASTKGPSVFPLAPSSKSTSGGTAALGCLVKDYFPEPVTVSWNSGALTSGVHTFPAVLQSSGLYSLSSVVTVPSSSLGTQTYICNVNHKPSNTKVDKKVEPKSCDKTHTCPPCPAPELLGGPDVFLFPPKPKDTLMISRTPEVTCVVVDVSDEDPEVKFNWYVDGVEVHNAKTKPREEQYNSTYRVVSVLTVLHQDWLNGKEYKCAVSNKALPAPIEKTISKAKGQPREPQVYTLPPSRDELTKNQVSLTCLVKGFYPSDIAVEWESNGQPENNYKTTPPVLDSDGSFFLYSKLTVDKSRWQQGNVFSCSVMHEALHNHYTQKSLSLSPGK
chain 2: DIQMTQSPSSLSASVGDRVTITCRASQDISNYLNWYQQKPDGTVKLLIYSTSRLHSGVPSRFSGSGSGTDYTLTISSLQPEDFATYYCQQGSTLPFTFGQGTKLEIKRTVAAPSVFIFPPSDEQLKSGTASVVCLLNNFYPREAKVQWKVDNALQSGNSQESVTEQDSKDSTYSLSSTLTLSKADYEKHKVYACEVTHQGLSSPVTKSFNRGEC
B3: the Kd in assay [1] was determined as 370 nM; in assay [2], 1380 nM.

B4: X3-KE HM268-K8 (antibody)
chain 1: QVQLVQSGPEVKKPGASVKVVCKTSGYTFTSYYIQWLKQRPGQGLEWIGWIYFGDASTKYNEKFKGRVTMTADKSTSTAYMELRSLRSDDTAVYYCASYYGSYFDYWGQGTTVTVSSASTKGPSVFPLAPSSKSTSGGTAALGCLVKDYFPEPVTVSWNSGALTSGVHTFPAVLQSSGLYSLSSVVTVPSSSLGTQTYICNVNHKPSNTKVDKKVEPKSCDKTHTCPPCPAPELLGGPDVFLFPPKPKDTLMISRTPEVTCVVVDVSDEDPEVKFNWYVDGVEVHNAKTKPRAEQYNSTYRVVSVLTVLHQDWLNGKEYKCAVSNKALPAPIEKTISKAKGQPREPQVYTLPPSRDELTKNQVSLTCLVKGFYPSDIAVEWESNGQPENNYKTTPPVLDSDGSFFLYSKLTVDKSRWQQGNVFSCSVMHEALHNHYTQKSLSLSPGK
chain 2: DIQMTQSPSSLSASVGDRVTITCRASQDISNYLNWYQQKPDGTVKLLIYSTSRLHSGVPSRFSGSGSGTDYTLTISSLQPEDFATYYCQQGSTLPFTFGQGTKLEIKRTVAAPSVFIFPPSDEQLKSGTASVVCLLNNFYPREAKVQWKVDNALQSGNSQESVTEQDSKDSTYSLSSTLTLSKADYEKHKVYACEVTHQGLSSPVTKSFNRGEC
In the case of B4, the equilibrium dissociation constant (Kd) in assay [1] came to 305 nM; in assay [2], 1110 nM.

B5: X3-KSI HM268-K8 (antibody)
chain 1: QVQLVQSGPEVKKPGASVKVVCKTSGYTFTSYYIQWLKQRPGQGLEWIGWIYFGDASTKYNEKFKGRVTMTADKSTSTAYMELRSLRSDDTAVYYCASYYGSYFDYWGQGTTVTVSSASTKGPSVFPLAPSSKSTSGGTAALGCLVKDYFPEPVTVSWNSGALTSGVHTFPAVLQSSGLYSLSSVVTVPSSSLGTQTYICNVNHKPSNTKVDKKVEPKSCDKTHTCPPCPAPELLGGPDVFLFPPKPKDTLMISRTPEVTCVVVDVGDEDPEVKFNWYVDGVEVHNAKTKPREEQYNSTYRVVSVLTVLHQDWLNGKEYKCAVSNKALPAPEEKTISKAKGQPREPQVYTLPPSRDELTKNQVSLTCLVKGFYPSDIAVEWESNGQPENNYKTTPPVLDSDGSFFLYSKLTVDKSRWQQGNVFSCSVMHEALHNHYTQKSLSLSPGK
chain 2: DIQMTQSPSSLSASVGDRVTITCRASQDISNYLNWYQQKPDGTVKLLIYSTSRLHSGVPSRFSGSGSGTDYTLTISSLQPEDFATYYCQQGSTLPFTFGQGTKLEIKRTVAAPSVFIFPPSDEQLKSGTASVVCLLNNFYPREAKVQWKVDNALQSGNSQESVTEQDSKDSTYSLSSTLTLSKADYEKHKVYACEVTHQGLSSPVTKSFNRGEC
B5: the dissociation constant (Kd) in assay [1] came out at 265 nM; in assay [2], 1640 nM.

(Values after patent publication US20240317859A1 (published 2024).)
